# Tests used:
# [1] = molecular target: rabbit muscle G-actin, biotinylated (rabbit, UniProt P68135 1-377); experiment: BLI; settings: both partners purified
# [2] = molecular target: rabbit muscle F-actin, biotinylated (rabbit, UniProt P68135 1-377); experiment: BLI; settings: both partners purified
binder,measurement,setting,value
"Plasmodium falciparum aldolase (enzyme, also called Pf aldolase; recombinant Pf aldolase; source: E. coli BL21 (pGEX-5X), purified, GST tag removed) MAHCTEYMNAPKKLPADVAEELATTAQKLVQAGKGILAADESTQTIKKRFDNIKLENTIENRASYRDLLFGTKGLGKFISGAILFEETLFQKNEAGVPMVNLLHNENIIPGIKVDKGLVNIPCTDEEKSTQGLDGLAERCKEYYKAGARFAKWRTVLVIDTAKGKPTDLSIHETAWGLARYASICQQNRLVPIVEPEILADGPHSIEVCAVVTQKVLSCVFKALQENGVLLEGALLKPNMVTAGYECTAKTTTQDVGFLTVRTLRRTVPPALPGVVFLSGGQSEEEASVNLNSINALGPHPWALTFSYGRALQASVLNTWQGKKENVAKAREVLLQRAEANSLATYGKYKGGAGGENAGASLYEKKYVY",Kd,[1],330 nM
same,Kd,[2],365 nM

# — PMC4251702, “Plasmodium falciparum aldolase and the C-terminal cytoplasmic domain of certain apical organellar proteins promote actin polymerization” (Molecular and Biochemical Parasitology, 2014)
